Tested on: MS2 coat protein
Assay: apparent KD of MS2 coat protein; designed switch direction (-1 OFF switch, 1 ON switch): -1; higher = weaker reporter binding
Outline: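 SNAP-549-labelled MS2 coat protein was titrated, doubling from 0.7 or 1.5 nM to 3 µM, over designed RNA switches transcribed on Illumina chips by stalled E. coli RNA polymerase. Runs were done without input, with 200 uM small-molecule ligand, or with an oligonucleotide input. Apparent KD is the per-design median over clusters of curve-fitted normalised fluorescence.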

[1] = Eterna round: R95, input ligand: microRNA oligo, concentration not stated
[2] = Eterna round: R95, input ligand: FMN 200 uM
[3] = Eterna round: R95, input ligand: none
[4] = input ligand: microRNA oligo, concentration not stated

| Sequence | apparent KD of MS2 coat protein (input ligand: FMN 200 uM) [nM] | apparent KD of MS2 coat protein (input ligand: none) [nM] | apparent KD of MS2 coat protein [1] [nM] | apparent KD of MS2 coat protein [2] [nM] | apparent KD of MS2 coat protein [3] [nM] | apparent KD of MS2 coat protein [4] [nM] |
| --- | --- | --- | --- | --- | --- | --- |
| AUUUAGUCAGGAUAUACAUGAGGAUCACCCAUGUAAACUUUUAGUUUAAUUUGAAUGUGUAGAAGGGACAUUUA [Ex3 #46] (Eterna round: R97, puzzle: Exclusion 3) | 26 | 28 | – | – | – | – |
| GACGCUAAAGGAUAUACAUGAGGAUCACCCAUGUUGAGGAAGGUUAGAUGAGGAGUAAGUAGAAGGUUAGGCGA [JR_Exclu3_Sub092] (puzzle: Exclusion 3) | – | – | 33.6 | – | – | – |
| ACAACAAGCUUUUUGAACGUAGAACAUGCAGCUCUAGAAACAUGAGGAUCACCCAUGUAAGCCAGUUAGAUAGGUGA [JR_SV3TOV2_Sub067] (puzzle: Sensor v3, turn-off variant 2) | – | – | 69.1 | 76.1 | 89.5 | – |
| GUCAGCUCGUCAGGAUAUACAUGCGUGCUUCGGCACGAAUUUAAGAUCACAUGAGGAUCACCCAUGUAGAAGGGACGAGCUGAC [ENG2/3-B1] (Eterna round: R96, puzzle: Exclusion NG 2) | 741 | 534 | – | – | – | 515 |
| CCCGCAGGUUUUUUGCUCGACAUGAGGAUCACCCAUGUUGCGUGGGUUGUGUGUGUGUGGUGCAUAUAUAUGGUCCU [-25.4, -48.9 kcal, A 14%] (Eterna round: R97, puzzle: Sensor, turn-off variant 1) | 300 | 350 | – | – | – | – |
| GAGUGCUGAGGAUAUACAUGAGGAUCACCCAUGUGCUUCAGCUAGGAGACUAGCAUCCGUAGAAGGCAGUACUC [Mod of lroppy 24 - Jieux - Exclusion 3] (Eterna round: R97, puzzle: Exclusion 3) | 37.5 | 14.3 | – | – | – | – |
| CAUUAUUAUCGAGGAUAUCCUAUUGAAAUUCUGGGAGAAGGCGGACUCAACAUGAGGAUCACCCAUGUGAGACGGGUGCUAGGG [Ex NG1 #26] (Eterna round: R96, puzzle: Exclusion NG 1) | – | – | – | – | – | 19.6 |
| GAUGUGGGUUUUCAGAGUAACAUGAGGAUCACCCAUGUAGAAGUUGGAGGGAUCAAGCUUUUUGGUCGUCAUAUGUG [JR_SV3TOV1_Sub051] (puzzle: Sensor v3, turn-off variant 1) | – | – | 511 | 442 | 509 | – |
| GUGGUACAUGAGGAUCACCCAUGUUAGGAUAUCGCGUGGUUUUUUGCGGCCGCGCGCGCGAGAAGGGACGUCUU (puzzle: Exclusion 1) | – | – | 29.3 | – | – | – |
| GACAAAGGAGGAUAUACAAUGUCCUGGUCUAACCCGAUGGCACAUGAGGAUCACCCAUGUAGAAGGCCUUUGCG [Eternabot (L1) Solution 4] (Eterna round: R97, puzzle: Exclusion 2) | 39 | 17.6 | – | – | – | – |
| UCAUAACAUGAGGAUCACCCAUGUGAGGAUAUGAUACUAUGUACUUCGGUACAUAGUAUCAGAAGGCGCAUACU [Brourd's Ex1-3: 11 (nt 68 G)] (puzzle: Exclusion 1) | – | – | 55.2 | 115 | 49.1 | – |
| ACAUGAGGAUCACCCAUGUUCGGCUGGUCCGUCUCGGCUGUCGAGGAUAUAGUUCGGUGUCCGCGCUAGAAGGCGGGAGCUGGC [Aenatbe mod 65] (Eterna round: R96, puzzle: Exclusion NG 3) | 34.1 | 42.6 | – | – | – | 29.4 |
| CUUUUAAAGCAACAUCAGCACAUGAGGAUCACCCAUGUGGCGUCCCGACUGUGCACGAUUGCUCGUCUUGACUGUAU [Eternabot (L1) Solution 25] (Eterna round: R97, puzzle: Sensor, turn-off variant 1) | 179 | 185 | – | – | – | – |
| GUCAGCUCGUCAGGAUAUACAUGCGUGCUUCGGCACGUAUGAUAGAUCACAUGAGGAUCACCCAUGUAGAAGGGACGAGCUGAU [ENG2/4-B2] (Eterna round: R96, puzzle: Exclusion NG 2) | 16.6 | 14.4 | – | – | – | 10 |
| CUUGUUUAUGUAGGAUAUGCCUGGCGUGCCUUUGCAGAAGGACAUGAGGAUCACCCAUGUAUUGCGGUCUGCGUUCAGAUCGCC [salish99_ExNG1_r4_042] (Eterna round: R96, puzzle: Exclusion NG 1) | 34.9 | 22 | – | – | – | 18.9 |
| AUUUUGUCAGGAUAUGAGUAGUAGGACGAAAGUGUUAUUAUUUAGAAGGGACAUGAGGAUCACCCAUGUUCCUC [Bring Us a Shrubbery-03] (Eterna round: R96, puzzle: Exclusion 4) | 13.9 | 13.7 | – | – | – | 10.7 |
| AGCUAUGCCGAGGAUAUCGGCUGGAUAAGACACUGAGAAGGCGGGACAUGAGGAUCACCCAUGUGAACCUAUAU [Eternabot (L1) Solution 30] (Eterna round: R97, puzzle: Exclusion 6) | 27.3 | 30.2 | – | – | – | – |

| Sequence | apparent KD of MS2 coat protein (input ligand: FMN 200 uM) [nM] | apparent KD of MS2 coat protein (input ligand: none) [nM] | apparent KD of MS2 coat protein [1] [nM] | apparent KD of MS2 coat protein [2] [nM] | apparent KD of MS2 coat protein [3] [nM] | apparent KD of MS2 coat protein [4] [nM] |
| --- | --- | --- | --- | --- | --- | --- |
| ACAAGCUUUUUGCUCGUCUACAUGAGGAUCACCCAUGUAGUGAGAUAGUGGUGAAGAUAGAUUGAGCGUAGUAGGUA [JR_SV3TOV1_Sub071] (puzzle: Sensor v3, turn-off variant 1) | – | – | 51.7 | 26.9 | 21.5 | – |
| AUAAUACAUGUAGGAUAUCUGCACGUUUAGUGCAGAGAAGGACAUGAGGAUCACCCAUGUAAUUAAGAUCAAUUAUUAAAUUAU [ENG1/3-D2] (Eterna round: R96, puzzle: Exclusion NG 1) | 293 | 66.2 | – | – | – | 54.7 |
| AAACGGCAUAGAGGAUAUGCUUACCUGGGUCGUCUUCAAACAUGAGGAUCACCCAUGUAGUCGACGCAGAAGGUUAUCAAAGCC [ExNG2 2nd] (Eterna round: R96, puzzle: Exclusion NG 2) | 16 | 17.9 | – | – | – | 12.2 |
| GCCGAUUAAGUGAGGAUAUACCUAUGGAUACAUAGGUAGAAGGUACAUGAGGAUCACCCAUGUUCCUUAACGGC [Fiskers BMX 4 - 8] (puzzle: Brourd's mod of Exclusion 4) | – | – | 10.4 | – | – | – |
| AAGAAACAUGAGGAUCACCCAUGUGAGGAUAUGAUGAGUAUUAUGUAUGUAGUAUGAAUCAGAAGGCACAAAGG [Mat - Mod Mix D40] (puzzle: Exclusion 1) | – | – | 95 | 224 | 158 | – |
| GCUAGGAAUGUCAGGAUAUGCAGAUCCUUGGAUCUGCAGAAGGGACAUGAGGAUCACCCAUGUGCUAACCUAGC [Mat - Exclusion 4 - JL Mod - D7] (Eterna round: R97, puzzle: Brourd's mod of Exclusion 4) | 110 | 24.3 | – | – | – | – |
| GUCAGCUCGUGAGGAUAUACAUGAGGAUCACCCAUGUGAUCAAUAGCAGCUUCGGCUGCAUACAUGUAGAAGGCACGAGCUGAU [ENG2/6-A2] (Eterna round: R96, puzzle: Exclusion NG 2) | – | – | – | – | – | 27.5 |
| GGAACGACAGGAUAUACAUGAGGAUCACCCAUGUGAGGAAGAGUAAAGUGUGAAGGAGGUAGAAGGGUCAAGAA [AK-MS2ROC-r4-exclusion3-3] (Eterna round: R97, puzzle: Exclusion 3) | 63.6 | 38.8 | – | – | – | – |
| CUGGUCCGAGGAUAUAUUAUGUGAAACAUGAGGAUCACCCAUGUAAUAUGAUGGAUGAAAAUAGAAGGCGGACUAG [Mat - Exclusion 5 - JL mod - D30] (puzzle: Exclusion 5) | – | – | 43.5 | 36.2 | 61 | – |
| AAAUAGGGAGGAUAUCCAAUAUAUGACAUGAGGAUCACCCAUGUUUCCACUCGUACCUCCGGAGAAGGCCCAUAAU [Ex5 #2] (Eterna round: R97, puzzle: Exclusion 5) | 25.8 | 23.9 | – | – | – | – |
| GUAACAUGCUGGUGAUCAUACAUGAGGAUCACCCAUGUAACAAGCUUUUUGUUCGUCUUAAUUUAAUUGAUUACUAG [Stov1/8-B2] (Eterna round: R97, puzzle: Sensor, turn-off variant 1) | 202 | 196 | – | – | – | – |
| CCAAGCUUAUUCAUUAACCACAUGAGGAUCACCCAUGUCUAGGCAAUUAUGACUUGCCCAUCUGGUGCUCGUCUUAU [Sensor-V1 #32] (Eterna round: R97, puzzle: Sensor, turn-off variant 1) | 32 | 32.7 | – | – | – | – |
| UAAUGCAAGCAAAGAUCUUACAUGAGGAUCACCCAUGUGCUCGUCUUAUAAAGUACUAUCACGAAAGUGAUAGUACA [Mat - Sensor v3 - turn-off var 1 - Eli Mod - D91] (puzzle: Sensor v3, turn-off variant 1) | – | – | 109 | 27.6 | 26.3 | – |
| CUUGUACAUGAGGAUCACCCAUGUUAGGAUAUCUCGCCGUCGGCUUGCCGACGGUAUUAGAGAAGGGACAAGGG [JL Tixe mod 7] (puzzle: Exclusion 1) | – | – | 18.6 | – | – | – |
| GUAUGAGGAGGAUAUACGUAUCCUUGACCCUGCUAGCGCGGACAUGAGGAUCACCCAUGUAGAAGGUUUCGACA [Eternabot (L1) Solution 46] (Eterna round: R97, puzzle: Exclusion 2) | 28.8 | 38.6 | – | – | – | – |
| AAUCUGUGAGGAUAUGGUGAGUAGUGCCUGAGCGCUGCUCACCAGAAGGCACAUGAGGAUCACCCAUGUAUGAA [Mat - Exclusion 4 - Mod of JL - D3] (puzzle: Exclusion 4) | – | – | 28 | – | – | – |
| AUAAGCUUUGAGAUCCUUAACAUGAGGAUCACCCAUGUUCGUCUUAUGAUGGUCUGAUCCCUGAGGAUCGGACCGUG [Mat - Sensor v3 - turn-off var 1 - JL Mod - D2] (puzzle: Sensor v3, turn-off variant 1) | – | – | 5.74 | 277 | 380 | – |

Reference: the supplement of paper PMC9170038
